This note sets out measurements from paper PMC10164398.

The test addresses fluorescein-labeled NS1 (89–237) (H3N2) (influenza A virus H3N2). The experiment in a line: […].

Sequence of fluorescein-labeled NS1 (89–237) (H3N2) (influenza A virus H3N2) (P03495 89-237 limits assumed): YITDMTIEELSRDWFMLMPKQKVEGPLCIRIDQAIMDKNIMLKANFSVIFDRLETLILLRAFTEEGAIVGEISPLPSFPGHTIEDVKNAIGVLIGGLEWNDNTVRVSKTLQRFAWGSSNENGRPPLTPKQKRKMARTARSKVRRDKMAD
Sequence of human eIF4E (P06730 whole entry): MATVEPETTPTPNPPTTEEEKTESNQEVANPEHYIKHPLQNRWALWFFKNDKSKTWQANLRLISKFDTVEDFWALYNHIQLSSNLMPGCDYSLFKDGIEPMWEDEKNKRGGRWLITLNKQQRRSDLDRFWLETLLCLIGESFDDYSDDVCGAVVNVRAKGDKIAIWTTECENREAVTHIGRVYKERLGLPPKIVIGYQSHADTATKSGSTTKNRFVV

Take “eIF4G1 (88–653) (from UniProt Q04637 88-653) (domain or fragment)”: the dissociation constant Kd (commonly the constant that tells how readily two partners part at equilibrium) stood at 264 nM. The value for “human eIF4E (from UniProt P06730 1-217) (natural protein)” was 177 nM.
